# Results taken from the FLAb antibody collection (doi:10.1101/2023.12.08.570889).
# Biological target: TSLP, Q969D9
# Test: Kd (SPR)
row,Kd,Binder
1,519 nM,unnamed (protein) chain 1: QMQLVESGGGVVQPGRSLRLSCAASGFTFSTFAMHWVRQAPGKGLEWVAVIWYDGSNKHYADSVKGRFTITRDNSKNTLNLQMNSLRAEDTAVYYCARAPRYDYYLEAFDVWGQGTMVTVSS chain 2: SYVLTQPPSVSVAPGQTARITCGGNNLGSKSVHWYQQKPGQAPVLVVYDDSDRPSWIPERFSGSNSGNTATLTISRGEAGDEADYYCQVWDSSSDHVVFGGGTKLTVL
2,285 nM,unnamed (protein) chain 1: QMQLVESGGGVVQPGRSLRLSCAASGFTFSTYAMHWVRQAPGKGLEWVAVIWYDGSNKHYADSVKGRFTITRDNSKNTLNLQMNSLRAEDTAVYYCARAPRYYDYWEAFDVWGQGTMVTVSS chain 2: SYVLTQPPSVSVAPGQTARITCGGNNLGSKSVHWYQQKPGQAPVLVVYDDSDRPSWIPERFSGSNSGNTATLTISRGEAGDEADYYCQVWDSSSDHVVFGGGTKLTVL
3,502 nM,unnamed (protein) chain 1: QMQLVESGGGVVQPGRSLRLSCAASGFTFSTFAMHWVRQAPGKGLEWVAVIWYDGSNKHYADSVKGRFTITRDNSKNTLNLQMNSLRAEDTAVYYCARAPRYDEAYEAFDVWGQGTMVTVSS chain 2: SYVLTQPPSVSVAPGQTARITCGGNNLGSKSVHWYQQKPGQAPVLVVYDDSDRPSWIPERFSGSNSGNTATLTISRGEAGDEADYYCQVWDSSSDHVVFGGGTKLTVL
4,524 nM,unnamed (protein) chain 1: QMQLVESGGGVVQPGRSLRLSCAASGFTFSTYAMHWVRQAPGKGLEWVAVIWYDGSNKHYADSVKGRFTITRDNSKNTLNLQMNSLRAEDTAVYYCARSPRYDYYYEAFDVWGQGTMVTVSS chain 2: SYVLTQPPSVSVAPGQTARITCGGNNLGSKSVHWYQQKPGQAPVLVVYDDSDRPSWIPERFSGSNSGNTATLTISRGEAGDEADYYCQVWDSSSDHVVFGGGTKLTVL
5,305 nM,unnamed (protein) chain 1: QMQLVESGGGVVQPGRSLRLSCAASGFTFSTFAMHWVRQAPGKGLEWVAVIWYDGSNKHYADSVKGRFTITRDNSKNTLNLQMNSLRAEDTAVYYCARAPRYDEYLEAFDVWGQGTMVTVSS chain 2: SYVLTQPPSVSVAPGQTARITCGGNNLGSKSVHWYQQKPGQAPVLVVYDDSDRPSWIPERFSGSNSGNTATLTISRGEAGDEADYYCQVWDSSSDHVVFGGGTKLTVL
6,217 nM,unnamed (protein) chain 1: QMQLVESGGGVVQPGRSLRLSCAASGFTFSTFAMHWVRQAPGKGLEWVAVIWYDGGNKHYADSVKGRFTITRDNSKNTLNLQMNSLRAEDTAVYYCARAPRYDEYYEAFDVWGQGTMVTVSS chain 2: SYVLTQPPSVSVAPGQTARITCGGNNLGSKSVHWYQQKPGQAPVLVVYDDSDRPSWIPERFSGSNSGNTATLTISRGEAGDEADYYCQVWDSSSDHVVFGGGTKLTVL
